Series [1] relates to A549 cells. Put plainly: Cytotoxic effect (cell count by flow cytometer), TTFields with or without Sacituzumab Govitecan. The class given is cell-based, human. Conditions: concomitant with TTFields 1.62 V/cm RMS, 150 kHz, 72 h; FIG. 3. On the procedure:
(§1) Tests were performed on three different cell types: A549, A2780 and 4T1. A549 cells are adenocarcinomec human alveolar basal epithelial cells. A2780 is a human ovarian cancer cell line. 4T1 is a breast cancer cell line derived from the mammary gland tissue of a mouse BALB/c strain.
NSCLC cells A549 were treated for 72 h with TTFields at an intensity of 1.62 V/cm RMS and a frequency of 150 kHz using the Inovitro system. TTFields were applied to the cells in the absence or presence of the Trop2 inhibitor Sacituzumab Govitecan. Treated cells were counted using a flow cytometer, and cytotoxic effect was calculated relative to control cells.
On the technique in general: A flow cytometer gives signals particle by particle.

Series [2] deals with A549 cells. Put plainly: Overall effect (cytotoxic x clonogenic effect), TTFields with or without Sacituzumab Govitecan. The class given is cell-based, human. Particulars: concomitant with TTFields 1.62 V/cm RMS, 150 kHz, 72 h; re-plated, grown 7-14 days; FIG. 4. On the procedure:
as §1
NSCLC cells A549 were treated for 72 h with TTFields at an intensity of 1.62 V/cm RMS and a frequency of 150 kHz using the Inovitro system. TTFields were applied to the cells in the absence or presence of the Trop2 inhibitor Sacituzumab Govitecan. Treated cells were harvested, re-plated, and grown for an additional 7-14 days. Colonies were stained (0.5% crystal violet solution), counted, and clonogenic effect was calculated relative to control. Overall effect was calculated by multiplying the cytotoxic and clonogenic effects.

The test system of series [3] is A549 cells. Put plainly: Apoptosis, annexin V / 7AAD flow cytometry, TTFields with or without Sacituzumab Govitecan. The series is classed as cell-based, human. Conditions: concomitant with TTFields 1.62 V/cm RMS, 150 kHz, 72 h, FIG. 5. The protocol: Tests were performed on three different cell types: A549, A2780 and 4T1. A549 cells are adenocarcinomec human alveolar basal epithelial cells. A2780 is a human ovarian cancer cell line. 4T1 is a breast cancer cell line derived from the mammary gland tissue of a mouse BALB/c strain. […] NSCLC cells A549 were treated for 72 h with TTFields at an intensity of 1.62 V/cm RMS and a frequency of 150 kHz using the Inovitro system. TTFields were applied to the cells in the absence or presence of the Trop2 inhibitor Sacituzumab Govitecan. Treated cells were double-stained with FITC-conjugated annexin V and 7-aminoactinomycin D (7AAD), and data acquisition was performed using a flow cytometer.

The subject of series [4] is A2780 cells. Put plainly: Cytotoxic effect (cell count by flow cytometer), TTFields with or without Sacituzumab Govitecan. The series is classed as cell-based, human. Particulars: concomitant with TTFields 1.62 V/cm RMS, 200 kHz, 72 h; FIG. 6. On the procedure: as §1
Ovarian carcinoma cells A2780 were treated for 72 h with TTFields at an intensity of 1.62 V/cm RMS and a frequency of 200 kHz using the Inovitro system. TTFields were applied to the cells in the absence or presence of the Trop2 inhibitor Sacituzumab Govitecan. Treated cells were counted using a flow cytometer, and cytotoxic effect was calculated relative to control cells.

In series [5] the test system is A2780 cells. Put plainly: Overall effect (cytotoxic x clonogenic effect), TTFields with or without Sacituzumab Govitecan. The class given is cell-based, human. Conditions: concomitant with TTFields 1.62 V/cm RMS, 200 kHz, 72 h; re-plated, grown 7-14 days; FIG. 7. The protocol: as §1
Ovarian carcinoma cells A2780 were treated for 72 h with TTFields at an intensity of 1.62 V/cm RMS and a frequency of 200 kHz using the Inovitro system. TTFields were applied to the cells in the absence or presence of the Trop2 inhibitor Sacituzumab Govitecan. Treated cells were harvested, re-plated, and grown for an additional 7-14 days. Colonies were stained (0.5% crystal violet solution), counted, and clonogenic effect was calculated relative to control. Overall effect was calculated by multiplying the cytotoxic and clonogenic effects.

In series [6] the test system is A2780 cells. Put plainly: Apoptosis, annexin V / 7AAD flow cytometry, TTFields with or without Sacituzumab Govitecan. The series is classed as cell-based, human. Conditions: concomitant with TTFields 1.62 V/cm RMS, 200 kHz, 72 h, FIG. 8. On the procedure: Tests were performed on three different cell types: A549, A2780 and 4T1. A549 cells are adenocarcinomec human alveolar basal epithelial cells. A2780 is a human ovarian cancer cell line. 4T1 is a breast cancer cell line derived from the mammary gland tissue of a mouse BALB/c strain. […] Ovarian carcinoma cells A2780 were treated for 72 h with TTFields at an intensity of 1.62 V/cm RMS and a frequency of 200 kHz using the Inovitro system. TTFields were applied to the cells in the absence or presence of the Trop2 inhibitor Sacituzumab Govitecan. Treated cells were double-stained with FITC-conjugated annexin V and 7-aminoactinomycin D (7AAD), and data acquisition was performed using a flow cytometer.

The test system of series [7] is 4T1 cells. Put plainly: Cytotoxic effect (cell count by flow cytometer), TTFields with or without Sacituzumab Govitecan. The class given is cell-based, mouse. Conditions: concomitant with TTFields 1.62 V/cm RMS, 150 kHz, 72 h; FIG. 9. On the procedure: as §1
Mammary carcinoma cells 4T1 were treated for 72 h with TTFields at an intensity of 1.62 V/cm RMS and a frequency of 150 kHz using the Inovitro system. TTFields were applied to the cells in the absence or presence of the Trop2 inhibitor Sacituzumab Govitecan. Treated cells were counted using a flow cytometer, and cytotoxic effect was calculated relative to control cells.

Series [8] relates to 4T1 cells. Put plainly: Overall effect (cytotoxic x clonogenic effect), TTFields with or without Sacituzumab Govitecan. The class given is cell-based, mouse. Conditions: concomitant with TTFields 1.62 V/cm RMS, 150 kHz, 72 h; re-plated, grown 7-14 days; FIG. 10. On the procedure: as §1
Mammary carcinoma cells 4T1 were treated for 72 h with TTFields at an intensity of 1.62 V/cm RMS and a frequency of 150 kHz using the Inovitro system. TTFields were applied to the cells in the absence or presence of the Trop2 inhibitor Sacituzumab Govitecan. Treated cells were harvested, re-plated, and grown for an additional 7-14 days. Colonies were stained (0.5% crystal violet solution), counted, and clonogenic effect was calculated relative to control. Overall effect was calculated by multiplying the cytotoxic and clonogenic effects.

For series [9], the system named is 4T1 cells. Put plainly: Apoptosis, annexin V / 7AAD flow cytometry, TTFields with or without Sacituzumab Govitecan. The class given is cell-based, mouse. Particulars: concomitant with TTFields 1.62 V/cm RMS, 150 kHz, 72 h, FIG. 11. The protocol:
Tests were performed on three different cell types: A549, A2780 and 4T1. A549 cells are adenocarcinomec human alveolar basal epithelial cells. A2780 is a human ovarian cancer cell line. 4T1 is a breast cancer cell line derived from the mammary gland tissue of a mouse BALB/c strain. Lastly, like A549 cells (FIGS. 5) and A2780 cells (FIG. 8), concomitant treatment of TTFields with Sacituzumab Govitecan enhanced the apoptotic effect in 4T1 cells (FIG. 11). Mammary carcinoma cells 4T1 were treated for 72 h with TTFields at an intensity of 1.62 V/cm RMS and a frequency of 150 kHz using the Inovitro system. TTFields were applied to the cells in the absence or presence of the Trop2 inhibitor Sacituzumab Govitecan. Treated cells were double-stained with FITC-conjugated annexin V and 7-aminoactinomycin D (7AAD), and data acquisition was performed using a flow cytometer. AnnexinV−7AAD−, live cells; AnnexinV+7AAD−, cells at early apoptosis; AnnexinV+7AAD+, cells at late apoptosis.

As to Sacituzumab Govitecan, the “A549 cell growth (cytotoxic effect relative to control cells)” value in the series with A549 cells [1] is given as “synergistically inhibited”. The “overall effect in A549 cells (cytotoxic x clonogenic effects)” value in the series on A549 cells [2] is recorded as “synergistically elevated”. For the same substance, the “apoptotic effect in A549 cells” value in the series on A549 cells [3] was “enhanced”. Further, in the series with A2780 cells [4], the “A2780 cell growth (cytotoxic effect relative to control cells)” value is on record as “synergistically inhibited”. Further, in the series with A2780 cells [5], the “overall effect in A2780 cells (cytotoxic x clonogenic effects)” value is given as “synergistically elevated”. For the same substance, the “apoptotic effect in A2780 cells” value in the series with A2780 cells [6] was “enhanced”. Further, in the series on 4T1 cells [7], the “4T1 cell growth (cytotoxic effect relative to control cells)” value is “synergistically inhibited”. Moreover, in the series with 4T1 cells [8], the “overall effect in 4T1 cells (cytotoxic x clonogenic effects)” value was “synergistically elevated”. Also, the “apoptotic effect in 4T1 cells” value in the series with 4T1 cells [9] is reported as “enhanced”.

For the origin of these results see US20250121089A1, “COMPOSITIONS AND METHODS FOR ENHANCING THE EFFECT OF A TROP-2 SPECIFIC THERAPEUTIC” (priority 2023, published 2025).
